Numbering of substitutions follows the chain as printed. Values belong to the binder of their own block, whether it stands above or below them.
Columns and labels:
Test in all cases: pull-down; GST pulldown; equal molars of GST-Srs2-CT or GST-Rad30-PIP and His6-Pol30 coincubated overnight at 4°C; Western blot with anti-His6 and anti-GST
Settings in all cases: both partners purified
His6-tagged Pol30-I128A = biological target: T1, His6-tagged Pol30-I128A (S. cerevisiae, UniProt P15873 1-258, I128A)
T1 construct: Pol30 (PCNA), S. cerevisiae, POL30 ORF in pET30a, mutant derivative; source: E. coli BL21, purified (Ni Sepharose)
T1 sequence (looked up): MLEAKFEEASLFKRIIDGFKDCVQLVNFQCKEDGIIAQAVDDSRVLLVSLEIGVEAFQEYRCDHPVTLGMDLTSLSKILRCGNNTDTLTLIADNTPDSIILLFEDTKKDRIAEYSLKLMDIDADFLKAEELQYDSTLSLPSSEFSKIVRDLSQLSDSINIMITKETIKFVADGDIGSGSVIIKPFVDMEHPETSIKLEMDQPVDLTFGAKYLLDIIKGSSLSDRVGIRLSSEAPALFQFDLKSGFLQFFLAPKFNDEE

His6-tagged Pol30-K164R = biological target: T2, His6-tagged Pol30-K164R (S. cerevisiae, UniProt P15873 1-258, K164R)
T2 construct: Pol30 (PCNA), S. cerevisiae, POL30 ORF in pET30a, mutant derivative; The methods describe only the wild-type pET-Pol30; source: E. coli BL21, purified (Ni Sepharose)
T2 sequence (looked up): T1 sequence (looked up) with A128I, K164R

His6-tagged Pol30 = biological target: T3, His6-tagged Pol30 (S. cerevisiae, UniProt P15873 1-258)
T3 construct: Pol30 (PCNA), S. cerevisiae, POL30 ORF cloned into BamHI-SacI sites of pET30a; also called His6-Pol30; PCNA; source: E. coli BL21, purified (Ni Sepharose)
T3 sequence (looked up): T1 sequence (looked up) with A128I

His6-tagged Pol30-A171D = biological target: T4, His6-tagged Pol30-A171D (S. cerevisiae, UniProt P15873 1-258, A171D)
T4 construct: Pol30 (PCNA), S. cerevisiae, POL30 ORF in pET30a, mutant derivative; The methods describe only the wild-type pET-Pol30; source: E. coli BL21, purified (Ni Sepharose)
T4 sequence (looked up): T1 sequence (looked up) with A128I, A171D

binding result (His6-tagged Pol30-I128A): binds
binding result (His6-tagged Pol30-K164R): binds
binding result (His6-tagged Pol30): binds
binding result (His6-tagged Pol30-A171D): binds
B1: GST-tagged Rad30-PIP (domain or fragment, S. cerevisiae, UniProt Q04049 515-632, looked up)
chain: VVDMFGNQVHTFKSSAGKEDEEKTTSSKADEKTPKLECCKYQVTFTDQKALQEHADYHLALKLSEGLNGAEESSKNLSFGEKRLLFSRKRPNSQHTATPQKKQVTSSKNILSFFTRKK
notes: Rad30 (DNA polymerase eta), S. cerevisiae, residues 515 to 632, cloned into BamHI-EcoRI sites of pGEX6; also called GST-Rad30-PIP; Rad30-PIP domain; source: E. coli BL21, purified (glutathione Sepharose)

binding result (His6-tagged Pol30-I128A): binds
binding result (His6-tagged Pol30-K164R): binds
binding result (His6-tagged Pol30): binds
B2: GST-tagged Srs2 C-terminal domain (Srs2-CT) (domain or fragment, S. cerevisiae, UniProt P12954 1107-1174, looked up)
chain: HNPDDTTVDNRPIISNAKFLADAAMKKTQKFSKKVKNEPASSQMDIFSQLSRAKKKSKLNNGEIIVID
notes: Srs2 DNA helicase, S. cerevisiae, residues 1107 to 1174, cloned into BamHI-EcoRI sites of pGEX6; Holds the atypical PIP box and the SIM; also called GST-Srs2-CT; Srs2 C terminus; source: E. coli BL21, purified (glutathione Sepharose)

— PMC10127746, “Genetic Dissection of Budding Yeast PCNA Mutations Responsible for the Regulated Recruitment of Srs2 Helicase” (mBio, 2023)
